Reference: US20230303636A1 (UNIVERSITY COURT OF THE UNIVERSITY OF GLASGOW, published 2023)

T1: pyocin AP41 (Pseudomonas aeruginosa (gene amplified …))
T1 chain: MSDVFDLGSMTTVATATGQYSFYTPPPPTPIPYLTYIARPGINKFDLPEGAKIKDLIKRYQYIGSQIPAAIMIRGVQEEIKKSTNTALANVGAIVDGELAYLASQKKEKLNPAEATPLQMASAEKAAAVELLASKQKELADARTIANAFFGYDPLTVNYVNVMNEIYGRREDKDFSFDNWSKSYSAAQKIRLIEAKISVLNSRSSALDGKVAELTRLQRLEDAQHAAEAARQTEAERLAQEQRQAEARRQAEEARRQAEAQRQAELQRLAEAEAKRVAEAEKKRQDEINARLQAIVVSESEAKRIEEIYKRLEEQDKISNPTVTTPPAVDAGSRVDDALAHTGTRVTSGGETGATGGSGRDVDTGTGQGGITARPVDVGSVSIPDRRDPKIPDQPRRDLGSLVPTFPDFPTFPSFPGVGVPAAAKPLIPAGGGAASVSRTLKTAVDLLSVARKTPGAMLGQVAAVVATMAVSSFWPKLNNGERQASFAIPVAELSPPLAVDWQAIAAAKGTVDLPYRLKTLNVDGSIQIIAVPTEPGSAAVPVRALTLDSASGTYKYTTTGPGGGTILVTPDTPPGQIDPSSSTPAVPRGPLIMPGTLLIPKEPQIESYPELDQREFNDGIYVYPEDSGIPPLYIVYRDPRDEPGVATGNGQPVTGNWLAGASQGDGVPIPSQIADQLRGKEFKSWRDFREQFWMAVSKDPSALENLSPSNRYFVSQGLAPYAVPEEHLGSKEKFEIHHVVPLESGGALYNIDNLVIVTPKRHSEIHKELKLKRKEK


Columns and labels:
[1] = target: T1, pyocin AP41; assay: co-expression in E. coli; complex purified on a His Trap column and by gel filtration
[2] = target: pyocin S2 (Pseudomonas aeruginosa, UniProt Q06584 1-689); assay: purification of the complex, method only by reference
Sequence of pyocin S2 (Q06584 whole entry): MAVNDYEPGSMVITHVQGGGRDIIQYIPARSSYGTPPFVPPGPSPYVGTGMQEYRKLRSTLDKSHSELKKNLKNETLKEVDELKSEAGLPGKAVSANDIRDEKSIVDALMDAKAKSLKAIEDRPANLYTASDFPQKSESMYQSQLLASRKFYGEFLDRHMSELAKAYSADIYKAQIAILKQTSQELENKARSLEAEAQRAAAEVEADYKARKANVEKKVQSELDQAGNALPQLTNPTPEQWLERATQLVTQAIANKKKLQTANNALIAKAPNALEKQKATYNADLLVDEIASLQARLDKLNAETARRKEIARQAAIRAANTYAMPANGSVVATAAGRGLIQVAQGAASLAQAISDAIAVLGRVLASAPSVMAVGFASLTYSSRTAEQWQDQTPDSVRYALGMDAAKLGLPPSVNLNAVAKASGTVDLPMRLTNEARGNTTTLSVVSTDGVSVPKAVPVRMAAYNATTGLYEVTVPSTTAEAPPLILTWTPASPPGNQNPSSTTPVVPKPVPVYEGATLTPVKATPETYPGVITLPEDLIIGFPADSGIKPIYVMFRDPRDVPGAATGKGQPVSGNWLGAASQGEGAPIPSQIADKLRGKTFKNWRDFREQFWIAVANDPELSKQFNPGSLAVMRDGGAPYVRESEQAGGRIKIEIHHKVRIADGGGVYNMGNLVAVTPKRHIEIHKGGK

| Binder | binding result [1] | binding result [2] |
| --- | --- | --- |
| pyocin AP41 immunity protein with C-terminal His6-tag (other, It is not explicitly tied to the C763 construct; also called ImAP41; not shown: C-terminal His6-tag from pET21a (XhoI site in place of the stop codon)) MDIKNNLSDYTESEFLEIIEEFFKNKSGLKGSELEKRMDKLVKHFEEVTSHPRKSGVIFHPKPGFETPEGIVKEVKEWRAANGLPGFKAG | binds | – |
| pyocin S2 immunity protein (other, also called ImS2) MKSKISEYTEKEFLEFVKDIYTNNKKKFPTEESHIQAVLEFKKLTEHPSGSDLLYYPNENREDSPAGVVKEVKEWRASKGLPGFKAG | – | binds |
